According to patent publication US20200087364A1 (IMMATICS BIOTECHNOLOGIES, published 2020):

These binders were tested against T1, HLA-A*01:01 (human) (assay: UV-ligand exchange, anti-b2m ELISA).
T1 construct: MHC class I monomer first loaded with a UV-sensitive peptide (not identified) that is cleaved by UV irradiation and exchanged for the tested peptide; captured on streptavidin plates, detected with anti-β2m; also called peptide-receptive MHC molecules
Summary of the method: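 Peptide–MHC complexes made by UV-ligand exchange of a UV-cleavable peptide; exchange yield measured by ELISA on streptavidin-coated plates, samples diluted 100-fold, 1 h 37 °C. Detection with 2 ug/ml HRP anti-β2m, TMB, A450; refolded HLA-A*02:01/MLA-001 monomer standards 15-500 ng/ml.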
SSDFDPLVY gave a peptide exchange yield of over 75%. ASDDVRIEVGLY showed a peptide exchange yield of over 75%. QLDSAVKNLY showed a peptide exchange yield of 50 to 75%. Work on LPDPNVQKY yielded a peptide exchange yield of 20 to 50%. RFRSITQSYY was tested, and the peptide exchange yield was 10 to 20%. Binder SANALILTY has a peptide exchange yield of 20 to 50%. With EVDIHTIHY the peptide exchange yield was 50 to 75%. LMEKEDYHSLY gave a peptide exchange yield of 50 to 75%. ESEMIKFASYY showed a peptide exchange yield of over 75%. In the case of TTQDELLVY, the peptide exchange yield is reported as 50 to 75%. With MTEKFLFLY the peptide exchange yield was over 75%. QVWGGQPVY showed a peptide exchange yield of 10 to 20%. With VTDSTTKIAY the peptide exchange yield was 50 to 75%. In the case of SSDNYEHWLY, the peptide exchange yield is reported as over 75%. In the case of TSEISQNALMY, the peptide exchange yield is reported as over 75%. In the case of LTEKSHIRY, the peptide exchange yield is reported as 50 to 75%. Binder NLDPNKIY has a peptide exchange yield of 10 to 20%. With ELCPLPGTSAY the peptide exchange yield was 20 to 50%. AFDDIATYF gave a peptide exchange yield of 20 to 50%. In the case of SSDIVALGGFLY, the peptide exchange yield is reported as 50 to 75%. Binder FTDSQGNDIK has a peptide exchange yield of 50 to 75%. Work on ASDVDTLLK yielded a peptide exchange yield of 50 to 75%. Binder FTTQDELLVY has a peptide exchange yield of 50 to 75%. QTDVERIKDTY gave a peptide exchange yield of 50 to 75%. Binder ILKGGSGTY has a peptide exchange yield of 20 to 50%. Work on WSQSSSLMY yielded a peptide exchange yield of over 75%. Binder STDSASYY has a peptide exchange yield of over 75%. RSDPGGGGLAYAAY was tested, and the peptide exchange yield was over 75%. Binder FSEPFHLIVSY has a peptide exchange yield of over 75%. TSDQLGYSY gave a peptide exchange yield of 50 to 75%. NSALNPLLY was tested, and the peptide exchange yield was over 75%. KEVDPAGHSYI was tested, and the peptide exchange yield was 20 to 50%. Binder QVPLDCVLY has a peptide exchange yield of 20 to 50%. Binder ASDPASSTSCY has a peptide exchange yield of 50 to 75%. For YSDLHTPGRY, the peptide exchange yield was 50 to 75%. ARDPITFSF showed a peptide exchange yield of 20 to 50%. Work on FMVIAGMPLFY yielded a peptide exchange yield of 50 to 75%. Binder VDPASNTY has a peptide exchange yield of 20 to 50%. ATEGDVLNY showed a peptide exchange yield of 50 to 75%. QSLPEFGLTYY was tested, and the peptide exchange yield was 20 to 50%. NSAINPLIY was tested, and the peptide exchange yield was over 75%. KSWSQSSSLMY showed a peptide exchange yield of 50 to 75%. RIEAIRAEY showed a peptide exchange yield of 20 to 50%. Work on YTAHVGYSMY yielded a peptide exchange yield of over 75%. EMEQQSQEY showed a peptide exchange yield of over 75%. With FTSDTGLEY the peptide exchange yield was over 75%. Work on FTDYELKAY yielded a peptide exchange yield of over 75%. In the case of YYDLVESTF, the peptide exchange yield is reported as 10 to 20%. For YTELVEEKY, the peptide exchange yield was 50 to 75%. In the case of LTDSTTRTTY, the peptide exchange yield is reported as 50 to 75%. With GSFSIQHTY the peptide exchange yield was 20 to 50%. Work on DTEFHGGLHY yielded a peptide exchange yield of 50 to 75%. GSNPARYEF was tested, and the peptide exchange yield was 20 to 50%. Work on NVDQNQNSY yielded a peptide exchange yield of 50 to 75%. Binder EVYDGREHSAY has a peptide exchange yield of 20 to 50%. ETEPERHLGSY gave a peptide exchange yield of 50 to 75%. In the case of ITDEDEDMLSY, the peptide exchange yield is reported as 50 to 75%. For QSLPEFGLTY, the peptide exchange yield was 20 to 50%. TQHFVQENY gave a peptide exchange yield of 20 to 50%. With IPSFNEMVY the peptide exchange yield was 20 to 50%. Work on YLENSASWY yielded a peptide exchange yield of over 75%. Work on YYYDTHTNTY yielded a peptide exchange yield of 10 to 20%. TSEISQNALMYY gave a peptide exchange yield of 50 to 75%. In the case of WSDGVPLLY, the peptide exchange yield is reported as over 75%. STEERRLNY was tested, and the peptide exchange yield was 50 to 75%. For HSDLLEDSKY, the peptide exchange yield was 50 to 75%. With VTEYAEEIYQY the peptide exchange yield was 50 to 75%. ASDLEPRELLSY was tested, and the peptide exchange yield was 50 to 75%. In the case of PPDHAVGRTKY, the peptide exchange yield is reported as 20 to 50%. Binder TSRAANIPGY has a peptide exchange yield of 10 to 20%. VSELVTTGHY showed a peptide exchange yield of 50 to 75%. In the case of YLEDRPLSQLY, the peptide exchange yield is reported as over 75%.
